In patent US20230128688A1 (published 2023) one finds Kd data, which are given here for one molecule.

The target of assay [1] is T1, CD20 (UniProt P11836 1-297, limits assumed).
T1 construct: Used in the Octet assay with Protein A biosensors
T1 sequence (looked up): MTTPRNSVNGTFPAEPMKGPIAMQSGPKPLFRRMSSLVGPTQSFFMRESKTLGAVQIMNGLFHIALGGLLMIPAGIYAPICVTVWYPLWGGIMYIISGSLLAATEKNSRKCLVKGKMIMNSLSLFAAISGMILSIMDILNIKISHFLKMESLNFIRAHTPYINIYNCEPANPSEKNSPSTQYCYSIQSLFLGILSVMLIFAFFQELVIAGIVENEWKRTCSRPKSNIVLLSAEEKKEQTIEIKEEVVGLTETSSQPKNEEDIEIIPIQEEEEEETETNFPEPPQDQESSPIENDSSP
The assay can be described thus: Octet bio-layer interferometry, Protein A biosensors. (In general: BLI is a label-free optical method that tracks binding on a fibre tip over time.)

Assay [2] addresses T1, CD20. Description: Octet bio-layer interferometry, Protein A biosensors, 1:1 global fit.

B1: III-1 (CD20×CD3; rituximab×SP34 scFv) (bispecific antibody)
chain 1: QVQLQQPGAELVKPGASVKMSCKASGYTFTSYNMHWVKQTPGRGLEWIGAIYPGNGDTSYNQKFKGKATLTADKSSSTAYMQLSSLTSEDSAVYYCARSTYYGGDWYFNVWGAGTTVTVSA
chain 2: QIVLSQSPAILSASPGEKVTMTCRASSSVSYIHWFQQKPGSSPKPWIYATSNLASGVPVRFSGSGSGTSYSLTISRVEAEDAATYYCQQWTSNPPTFGGGTKLEIK
chain 3: EVQLVESGGGLVQPGGSLKLSCAASGFTFNTYAMNWVRQAPGKGLEWVGRIRSKYNNYATYYADSVKGRFTISRDDSKNTLYLQMNSLRAEDTAVYYCVRHGNFGNSYVSWFAYWGQGTLVTVSSGGGGSGGGGSGGGGSQAVVTQEPSLTVSPGGTVTLTCGSSTGAVTTSNYANWVQQKPGQAPRGLIGGTNKRAPGVPARFSGSLLGGKAALTLSGAQPEDEAEYYCALWYSNLWVFGGGTKLTVLGSEQKLISEEDLGSGGGGSLPET
modifications: C-terminal LPETG sortase tag joined through the (G)5-PEG linker from I-53 to a lysine of rituximab
Take B1: the Kd came to 0.75 nM in assay [1] and 1.06 nM in assay [2].

One may read the Kd as the free concentration of one partner at which half of the binding sites on the other are occupied at equilibrium, for simple one-to-one binding. Low values mean a tighter complex, high ones a looser complex.
